Results reported in CN114195889A (NANJING FUJIEKANG BIOTECHNOLOGY CO LTD, dated 2022).

Target: T1, 人源重组SARS-Cov-2-N蛋白 (SARS-CoV-2, UniProt P0DTC9 1-419)
T1 construct: range 1-419; also called SARS-Cov-2-N重组蛋白; 新冠病毒N蛋白
Assay: ELISA dose-response on coated N protein

B1: 纳米抗体1B2 (VHH)
VHH: ESGGGSVQAGGSLKLSCVAFGYTYTSGCMGWFRQAPGKGREGVATICNTDGTTAYANSVKGRFTISQDNAKNTVYLQMNSLKAEDSAMYYCAAGRTPYELASGGKNWGQGTQVTVSS
notes: also called VHH4
B1: binds.
